This note sets out measurements from the supplement of paper PMC10567573.

To fix the notation:
B1: INTS3 (parent)
chain: DLNSKGKKREFRFHPIKETVVEEP
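Note: lentivirally expressed fusions sorted by FACS into six bins by GFP to DsRed ratio, PSI derived from sequencing read proportions per bin multiplied by bin number.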

This data set covers variants of B1. Kind of data set: protein stability index of a GFP-peptide fusion (GPS, HEK-293T) (PSI 1-6); higher = more stable. The following applies: c terminus: a fixed tail appended.
Regarding DLNSGGKKREFRFHPIKETVVEEP [K5G], the protein stability index turned out to be 2.54.
In the case of DLNSDGKKREFRFHPIKETVVEEP [K5D], the protein stability index was 3.04.
Regarding DLNSYGKKREFRFHPIKETVVEEP [K5Y], the protein stability index came out at 2.26.
In the case of DLNSEGKKREFRFHPIKETVVEEP [K5E], the protein stability index was determined as 2.88.
DLNSTGKKREFRFHPIKETVVEEP [K5T]: the protein stability index came out at 2.39.
As for DLNSMGKKREFRFHPIKETVVEEP [K5M], the protein stability index was found to be 2.05.
For DLNSQGKKREFRFHPIKETVVEEP [K5Q], the protein stability index came out at 2.44.
Under DLNSAGKKREFRFHPIKETVVEEP [K5A] stands 2.43.
Under DLNSHGKKREFRFHPIKETVVEEP [K5H] stands 2.48; under DLNSSGKKREFRFHPIKETVVEEP [K5S], 2.35; under DLNSNGKKREFRFHPIKETVVEEP [K5N], 2.56.
Under DLNSLGKKREFRFHPIKETVVEEP [K5L] stands 2.07.
For DLNSIGKKREFRFHPIKETVVEEP [K5I], the protein stability index is 2.32.
Next, DLNSVGKKREFRFHPIKETVVEEP [K5V]: 2.76.
In the case of DLNSWGKKREFRFHPIKETVVEEP [K5W], the protein stability index worked out at 2.32.
Next, DLNSPGKKREFRFHPIKETVVEEP [K5P]: 2.69.
Under DLNSCGKKREFRFHPIKETVVEEP [K5C] stands 2.05; under DLNSFGKKREFRFHPIKETVVEEP [K5F], 1.88.
Next, DLNSRGKKREFRFHPIKETVVEEP [K5R]: 2.25; DVNSKGKKREFRFHPIKETVVEEP [L2V]: 3.25; DRNSKGKKREFRFHPIKETVVEEP [L2R]: 2.34.
DWNSKGKKREFRFHPIKETVVEEP [L2W]: the protein stability index was found to be 1.9.
Under DGNSKGKKREFRFHPIKETVVEEP [L2G] stands 2.8.
Next, DANSKGKKREFRFHPIKETVVEEP [L2A]: 2.73; DPNSKGKKREFRFHPIKETVVEEP [L2P]: 2.74.
Next, DHNSKGKKREFRFHPIKETVVEEP [L2H]: 2; DNNSKGKKREFRFHPIKETVVEEP [L2N]: 2.96; DENSKGKKREFRFHPIKETVVEEP [L2E]: 2.26.
With DSNSKGKKREFRFHPIKETVVEEP [L2S], the protein stability index amounted to 2.89.
Next, DMNSKGKKREFRFHPIKETVVEEP [L2M]: 1.81; DDNSKGKKREFRFHPIKETVVEEP [L2D]: 2.82.
Under DQNSKGKKREFRFHPIKETVVEEP [L2Q] stands 2.69; under DFNSKGKKREFRFHPIKETVVEEP [L2F], 2.2.
Turning to DCNSKGKKREFRFHPIKETVVEEP [L2C], the protein stability index came to 2.22.
Under DYNSKGKKREFRFHPIKETVVEEP [L2Y] stands 1.89.
With DKNSKGKKREFRFHPIKETVVEEP [L2K], the protein stability index is 2.09.
For the variant DINSKGKKREFRFHPIKETVVEEP [L2I], the protein stability index was 2.36.
Consider DTNSKGKKREFRFHPIKETVVEEP [L2T], for which the protein stability index came out at 2.28.
Next, DLNMKGKKREFRFHPIKETVVEEP [S4M]: 2.03; DLNVKGKKREFRFHPIKETVVEEP [S4V]: 2.71.
Next, DLNTKGKKREFRFHPIKETVVEEP [S4T]: 2.49.
Consider DLNRKGKKREFRFHPIKETVVEEP [S4R], for which the protein stability index was 2.23.
Next, DLNPKGKKREFRFHPIKETVVEEP [S4P]: 2.41; DLNYKGKKREFRFHPIKETVVEEP [S4Y]: 2.24; DLNNKGKKREFRFHPIKETVVEEP [S4N]: 1.99.
Next, DLNQKGKKREFRFHPIKETVVEEP [S4Q]: 1.88.
Take DLNIKGKKREFRFHPIKETVVEEP [S4I]: the protein stability index turned out to be 2.12.
For the variant DLNEKGKKREFRFHPIKETVVEEP [S4E], the protein stability index was 3.09.
Under DLNGKGKKREFRFHPIKETVVEEP [S4G] stands 2.13.
Under DLNCKGKKREFRFHPIKETVVEEP [S4C] stands 2.27; under DLNFKGKKREFRFHPIKETVVEEP [S4F], 2.77.
Consider DLNLKGKKREFRFHPIKETVVEEP [S4L], for which the protein stability index was 2.
Take DLNKKGKKREFRFHPIKETVVEEP [S4K]: the protein stability index was 2.08.
Under DLNDKGKKREFRFHPIKETVVEEP [S4D] stands 2.6.
Under DLNHKGKKREFRFHPIKETVVEEP [S4H] stands 2.24.
As to DLNAKGKKREFRFHPIKETVVEEP [S4A], the protein stability index came out at 2.42.
Take DLNWKGKKREFRFHPIKETVVEEP [S4W]: the protein stability index came to 1.92.
Under DLQSKGKKREFRFHPIKETVVEEP [N3Q] stands 2.33.
Next, DLGSKGKKREFRFHPIKETVVEEP [N3G]: 2.2.
DLPSKGKKREFRFHPIKETVVEEP [N3P]: the protein stability index was found to be 1.87.
Under DLASKGKKREFRFHPIKETVVEEP [N3A] stands 1.83; under DLTSKGKKREFRFHPIKETVVEEP [N3T], 2.4; under DLESKGKKREFRFHPIKETVVEEP [N3E], 2.9.
Under DLYSKGKKREFRFHPIKETVVEEP [N3Y] stands 2.54; under DLCSKGKKREFRFHPIKETVVEEP [N3C], 1.78; under DLRSKGKKREFRFHPIKETVVEEP [N3R], 2.08.
Next, DLWSKGKKREFRFHPIKETVVEEP [N3W]: 1.8.
Take DLSSKGKKREFRFHPIKETVVEEP [N3S]: the protein stability index was 1.76.
As to DLMSKGKKREFRFHPIKETVVEEP [N3M], the protein stability index amounted to 1.77.
With DLDSKGKKREFRFHPIKETVVEEP [N3D], the protein stability index is 2.79.
Next, DLKSKGKKREFRFHPIKETVVEEP [N3K]: 2.19; DLVSKGKKREFRFHPIKETVVEEP [N3V]: 1.53; DLHSKGKKREFRFHPIKETVVEEP [N3H]: 1.88.
Next, DLISKGKKREFRFHPIKETVVEEP [N3I]: 1.88.
Consider DLLSKGKKREFRFHPIKETVVEEP [N3L], for which the protein stability index was determined as 2.16.
For DLFSKGKKREFRFHPIKETVVEEP [N3F], the protein stability index came out at 1.51.
Next, DLNSKQKKREFRFHPIKETVVEEP [G6Q]: 2.3; DLNSKIKKREFRFHPIKETVVEEP [G6I]: 1.59.
Next, DLNSKMKKREFRFHPIKETVVEEP [G6M]: 2.4.
Under DLNSKEKKREFRFHPIKETVVEEP [G6E] stands 2.25; under DLNSKCKKREFRFHPIKETVVEEP [G6C], 2.23; under DLNSKHKKREFRFHPIKETVVEEP [G6H], 2.74.
As to DLNSKAKKREFRFHPIKETVVEEP [G6A], the protein stability index turned out to be 2.02.
Under DLNSKPKKREFRFHPIKETVVEEP [G6P] stands 2.42; under DLNSKNKKREFRFHPIKETVVEEP [G6N], 2.37; under DLNSKRKKREFRFHPIKETVVEEP [G6R], 1.33.
Under DLNSKDKKREFRFHPIKETVVEEP [G6D] stands 2.29; under DLNSKKKKREFRFHPIKETVVEEP [G6K], 1.74.
For the variant DLNSKLKKREFRFHPIKETVVEEP [G6L], the protein stability index came out at 1.52.
Under DLNSKFKKREFRFHPIKETVVEEP [G6F] stands 1.74; under VLNSKGKKREFRFHPIKETVVEEP [D1V], 2.47; under SLNSKGKKREFRFHPIKETVVEEP [D1S], 1.55.
Next, TLNSKGKKREFRFHPIKETVVEEP [D1T]: 1.52.
YLNSKGKKREFRFHPIKETVVEEP [D1Y]: the protein stability index worked out at 1.67.
